Test results published in US20050003420, “Recycled mutagenesis of restriction endonuclease toward enhanced catalytic activity” (published 2005).
Numbering of substitutions follows the chain as printed.

Experiments:
BsoBI D246Q D246Q = molecular target: T1, BsoBI D246Q D246Q (UniProt P70985); assay: cleavage_in_vitro; conditions: cell extract
T1 sequence: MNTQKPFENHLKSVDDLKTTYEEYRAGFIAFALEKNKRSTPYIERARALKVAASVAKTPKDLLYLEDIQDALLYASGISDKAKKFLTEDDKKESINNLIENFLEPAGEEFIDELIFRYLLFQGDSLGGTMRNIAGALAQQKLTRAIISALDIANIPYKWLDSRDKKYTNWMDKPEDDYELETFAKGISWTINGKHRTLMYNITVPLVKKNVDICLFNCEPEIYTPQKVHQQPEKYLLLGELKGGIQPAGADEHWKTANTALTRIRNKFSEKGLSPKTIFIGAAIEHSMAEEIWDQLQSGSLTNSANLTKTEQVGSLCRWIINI

BsoBI D246N D246N = molecular target: T2, BsoBI D246N D246N (UniProt P70985); assay: cleavage_in_vitro; conditions: cell extract
T2 sequence: T1 sequence with Q246N

BsoBI D246E D246E = molecular target: T3, BsoBI D246E D246E (UniProt P70985); assay: cleavage_in_vitro; conditions: lambda or pUC19; purified D246E also lacked measurable cleavage
T3 sequence: T1 sequence with Q246E

[1] = molecular target: BsoBI pseudorevertant 6c E46V/D61E/S94T/D246A (UniProt P70985); assay: cleavage_in_vitro; conditions: pUC19, 65 C
PvuII E18K/K93R/R105H = molecular target: T4, PvuII E18K/K93R/R105H (UniProt P23657 P23657:1-157, E18K/K93R/R105H); assay: cleavage_in_vitro; NEB buffer 2, 37 C, 1.5 h; conditions: tags: His-tag; chain copies: 2 inferred
T4 sequence: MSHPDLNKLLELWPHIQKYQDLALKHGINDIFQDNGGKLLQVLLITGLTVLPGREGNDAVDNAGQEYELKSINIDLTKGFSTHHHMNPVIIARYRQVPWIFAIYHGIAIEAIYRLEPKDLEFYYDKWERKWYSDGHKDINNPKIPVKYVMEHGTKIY
Source text: (§1) In order to test the cleavage specificity of the mutant endonucleases, two substrates were designed such that a limited number of sites related to the PvuII cognate sequence were present. A 1042 bp DNA substrate, corresponding to bases 317-1359 of the pUC19 sequence (GenBank #L09137), was amplified from pUC19. This substrate contains a unique PvuII site 631 bp from one end. A second, 1270 bp DNA substrate was amplified from the region corresponding to bases 6010-7280 of pTYB1 (New England Biolabs, Beverly, Mass.). This substrate contains a unique MfeI site 1022 bp from one end, and a unique PmlI site 810 bp from the same end. These substrates were used to determine the substrate specificity of PvuII (K93R) and its variants K93R/R105H, K93R/V50A and E18K/K93R/R105H. PvuII restriction digestion was assayed in NEB buffer 2 at 37° C. for 1.5 hour (New England Biolabs, Inc., Beverly, Mass.). […] The amount of protein required to cleave the MfeI/PmlI substrate at the MfeI site is >10 μg for the K93R mutant, 0.1 μg for K93R/105H, for 0.1 μg K93R/V50A, and 0.03 μg for K93R/R105H/E18K. The amount of protein required to cleave the MfeI/PmlI substrate at the PmlI site is >10 μg for the K93R mutant, 3 μg for K93R/105H, 3 μg for K93R/V50A, and 3 μg for K93R/R105H/E18K. Cleavage of the MfeI or PmlI sites by the wild-type PvuII endonuclease was not detectible (data not shown). It is clear that, compared to K93R, these K93R variants show an increase in specific cleavage activity at CAATTG and […], while maintaining similar levels of cleavage activity at CAGCTG.

PvuII K93R/R105H = molecular target: T5, PvuII K93R/R105H (UniProt P23657 P23657:1-157, K93R/R105H); assay: cleavage_in_vitro; NEB buffer 2, 37 C, 1.5 h; conditions: tags: His-tag; chain copies: 2 inferred
T5 sequence: T4 sequence with K18E
Source text: as §1

PvuII K93R/V50A = molecular target: T6, PvuII K93R/V50A (UniProt P23657 P23657:1-157, K93R/V50A); assay: cleavage_in_vitro; NEB buffer 2, 37 C, 1.5 h; conditions: tags: His-tag; chain copies: 2 inferred
T6 sequence: T4 sequence with K18E, V50A, H105R
Source text: as §1

[2] = molecular target: T7, BsoBI pseudorevertant 29e (UniProt P70985 P70985:1-323, D246A/C317W); assay: cleavage_in_vitro; pUC19, 65 C; conditions: chain copies: 2 inferred
T7 sequence: T1 sequence with Q246A, C317W

BsoBI pseudorevertant 8d = molecular target: T8, BsoBI pseudorevertant 8d (UniProt P70985 P70985:1-323, N36K/D246A); assay: cleavage_in_vitro; pUC19, 65 C; conditions: tags: partially purified; chain copies: 2 inferred
T8 sequence: T1 sequence with N36K, Q246A

[3] = molecular target: T9, BsoBI restriction endonuclease (UniProt P70985 P70985:1-323); assay: cleavage_in_vitro; pUC19, NEB buffer 2, 65 C; conditions: tags: untagged, expressed from pRRS-bsoBIR in E. coli ER2683; chain copies: 2 inferred
T9 sequence: T1 sequence with Q246D

[4] = molecular target: T10, BsoBI pseudorevertant 9c (same as 11c) (UniProt P70985 P70985:1-323, R38S/L62I/D112Y/N169T/L238F/D246A/A248S); assay: cleavage_in_vitro; pUC19, 65 C; protein temperature sensitive; conditions: chain copies: 2 inferred
T10 sequence: T1 sequence with R38S, L62I, D112Y, N169T, L238F, Q246A, A248S

PvuII K93R = molecular target: T11, PvuII K93R (UniProt P23657 P23657:1-157, K93R); assay: cleavage_in_vitro; NEB buffer 2, 37 C, 1.5 h; conditions: tags: His-tag; chain copies: 2 inferred
T11 sequence: T4 sequence with K18E, H105R
Source text: as §1

## lambda DNA (8 BsoBI sites)
BsoBI D246Q D246Q
  activity: < 0.001 % of wt
BsoBI D246N D246N
  activity: < 0.001 % of wt
BsoBI D246E D246E
  activity: < 0.001 % of wt

## GTACCCGGGGAT (double strand) [pUC19/pZZ1 CCCGGG site]
[1]
  activity: 4 % of wt

B1: pTYB1 1270 bp PCR fragment, MfeI site (dsDNA)
DNA 1: CAATTG
DNA 2: CAATTG
PvuII E18K/K93R/R105H
  activity: 0.03 ug protein required to cleave
PvuII K93R/R105H
  activity: 0.1 ug protein required to cleave
PvuII K93R/V50A
  activity: 0.1 ug protein required to cleave

B2: pUC19/pZZ1 CCCGGG site (dsDNA)
DNA 1: GTACCCGGGGAT
DNA 2: ATCCCCGGGTAC
[2]
  activity: 4 % of wt
BsoBI pseudorevertant 8d
  activity: 5 % of wt
[3]
  activity: 100 % of wt
[4]
  activity: 10 % of wt

B3: pUC19 1042 bp PCR fragment, unique PvuII site (dsDNA)
DNA 1: CAGCTG
DNA 2: CAGCTG
PvuII E18K/K93R/R105H
  activity: 0.03 ug protein required to cleave
PvuII K93R/R105H
  activity: 0.01 ug protein required to cleave
PvuII K93R/V50A
  activity: 0.01 ug protein required to cleave
PvuII K93R
  activity: 0.03 ug protein required to cleave
